Experimental findings from patent publication US10689421B2, “Bacteriocin-producing Paenibacillus ehimensis and application thereof” (National Pingtung University of Science and Technology, priority 2018, dated 2020) are described below.

The subject of one series is Pseudomonas aeruginosa. As to the kind of experiment: Inhibitory zone of Peocin on solid medium containing pathogen. It counts as cell-based. The conditions noted are these: solid medium containing strain 10^6 CFU/ml. The source says:
(§1) Following pathogens were subjected in the test. Six aquaculture pathogen: Aeromonas hydrophila, Vibrio vulnificus, Vibrio alginolyticus, Vibrio parahaemolyticus, Streptococcus agalactiae and Debaryomyces hansenii. Five foodborne pathogen which cause food rot and food poisoning: Staphylococcus aureus, Methicillin-resistant Staphylococcus aureus (MRSA), Escherichia coli, Salmonella typhimurium and Listeria monocytogenes. Two clinical infectious pathogens: Pseudomonas aeruginosa and Burkholderia gladioli causing leaf spot disease. Culture these strains separately and create solid medium containing these strains (10^6 CFU/ml). Add antibacterial protein after solid medium solidifies, then measure the antibacterial activity and inhibitory zone diameter.

The subject of a further series is Escherichia coli. The series is described as above. In kind it is cell-based. The conditions noted are these: solid medium containing strain 10^6 CFU/ml.
Description: as §1

Another series has as its system Listeria monocytogenes. Described as above. In kind it is cell-based. The conditions noted are these: solid medium containing strain 10^6 CFU/ml.
Description: as §1

The test system of another series is Streptococcus agalactiae. Described as above. In kind it is cell-based. Conditions: solid medium containing strain 10^6 CFU/ml.
Description: as §1

The next series concerns Vibrio alginolyticus. The series is described as above. Conditions: solid medium containing strain 10^6 CFU/ml. It counts as cell-based.
Description: as §1

Another series relates to Salmonella typhimurium. Described as above. It counts as cell-based. The conditions noted are these: solid medium containing strain 10^6 CFU/ml.
Description: as §1

A further series concerns Staphylococcus aureus. The series is described as above. It counts as cell-based. The conditions noted are these: solid medium containing strain 10^6 CFU/ml.
Description: as §1

The next series relates to Debaryomyces hansenii. The series is described as above. It counts as cell-based. The conditions noted are these: solid medium containing strain 10^6 CFU/ml.
Description: as §1

In another series the test system is Vibrio parahaemolyticus. The series is described as above. It counts as cell-based. Conditions: solid medium containing strain 10^6 CFU/ml.
Description: as §1

The test system of series [1] is Methicillin-resistant Staphylococcus aureus (MRSA). The description is as above. Conditions: solid medium containing strain 10^6 CFU/ml. In kind it is cell-based.
Description: as §1

The next series concerns Vibrio vulnificus. Described as above. Conditions: solid medium containing strain 10^6 CFU/ml. It counts as cell-based.
Description: as §1

Another series concerns Aeromonas hydrophila. Described as above. Conditions: solid medium containing strain 10^6 CFU/ml. In kind it is cell-based.
Description: as §1

The subject of another series is Burkholderia gladioli. The series is described as above. In kind it is cell-based. Conditions: solid medium containing strain 10^6 CFU/ml.
Description: as §1

Series [2] relates to E. coli. As to the kind of experiment: Antibacterial protein stability under different preservation temperature for 70 days. It counts as physicochemical. The method, then:
Place purified antibacterial protein Peocin sample in 40° C., room temperature, 4° C. and −20° C. environment respectively for 70 days. Each week during the experiment, extract samples and measure their antibacterial activity and inhibitory zone diameter using TSB agar plate containing E. coli.

Series [3] deals with E. coli. In words: Antibacterial activity of purified antibacterial protein (Resazurin reduction assay). In kind it is cell-based. The conditions noted are these: compared with the unpurified culture supernatant. The method, then: Antibacterial activity is evaluated by using Resazurin reduction assay. The Resazurin reduction assay is used to determine bacteria or cell activity, based on its reaction with mitochondria NADH dehydrogenase, which reduces the original dark blue Resazurin into pink Resorufin. Dilute the indicator bacterial strain E. coli cultured in advance to 1×10^7 CFU/ml and prepare 0.25 mg/ml Resazurin dye for following experiment. 96-well plate was divided into groups of three well as a triplication of one sample set; the total being 21 sets and every well was added with 60 μl TSB medium, 10 μl Resazurin dye, 10 μl indicator strain and 20 μl sample (total 100 μl). The aforementioned 20 μl sample is prepared by adding 0, 1, 2, . . . 20 μl of sample medium respectively, then use TSB medium to fill the total sample volume to 20 μl. Place the sample added 96-well plate in 37° C. incubation box for 12 hours and observe the results. Antibacterial unit (AU) is determined by Resazurin assay, whereas the minimum amount of sample medium required to inhibit color change is 1AU. The antibacterial activity of sampled culture in each time point is represented by how many AU there is in 1 ml of medium.
Take 500 μl liquid bacteria from −80° C. preserved NPUST-1 strain, add it to 50 ml TSB broth culture and culture it for 24 hours under 28° C. for activation. […]

The subject of series [4] is E. coli. In words: Evaluation of antibacterial protein pH tolerance. In kind it is physicochemical. The conditions noted are these: 28° C. As to the method: Add the purified antibacterial substance in PBS buffer pH7.4 as control group. The experimental groups comprise pH 2, pH3, pH 4, pH 5, pH 6, pH 7, pH 8, pH 9 and pH 10 group, the buffer used for different pH treatment are Glycine-HCl buffer (pH 2.0), Citrate-phosphate Mcllvaine buffer (pH 3.0, 4.0, 5.0 and 6.0), Sodium-phosphate buffer (pH 7.0), Tris(hydroxymethyl) aminomethane buffer (pH 8.0 and 9.0) and Glycine-NaOH buffer (pH 10.0). First, add 500 μl of purified antibacterial protein in 15 ml centrifuge individually for each group, then add 2 ml of different pH buffer to change pH environment of treated antibacterial substance and stand for 4 hours under 28° C. After 4 hours, measure the antibacterial activity and inhibitory zone diameter using TSB agar plate containing E. coli.

For the next series, the system named is trypsin. As to the kind of experiment: Sensitivity of antibacterial protein Peocin to protease. In kind it is physicochemical. Conditions: trypsin 1 mg/ml, 4 hours, 37° C. The method, then: (§2) Evaluate sensitivity of Peocin to proteinase K and trypsin respectively. First, add 180 μl of purified antibacterial protein peocin into 1.7 ml micro-centrifuge tube, then add 20 μl of 10 mg/ml proteinase K and trypsin respectively for the final concentration of protease to be 1 mg/ml, then stand for 4 hours under 37° C. for reaction. Next, use TSB agar plate containing E. coli to measure the antibacterial activity and inhibitory zone diameter. For comparison, use PBS buffer without antibacterial protein as buffer group, and control group is purified antibacterial protein peocin without protease.

A further series addresses proteinase K (Parengyodontium album, UniProt P06873). The description is as above. In kind it is physicochemical. Conditions: protease K 1 mg/ml, 4 hours, 37° C. As to the method:
as §2

Chain of proteinase K (P06873 106-384): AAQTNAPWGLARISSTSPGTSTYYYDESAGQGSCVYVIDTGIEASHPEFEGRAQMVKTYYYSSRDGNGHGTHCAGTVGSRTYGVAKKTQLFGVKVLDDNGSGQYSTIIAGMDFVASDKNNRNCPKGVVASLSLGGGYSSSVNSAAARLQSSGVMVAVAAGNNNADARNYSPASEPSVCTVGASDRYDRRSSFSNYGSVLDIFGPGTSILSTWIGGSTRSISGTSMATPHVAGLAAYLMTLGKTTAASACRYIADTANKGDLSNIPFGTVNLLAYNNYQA

B1: Peocin: bacteriocin; DNA starvation/stationary phase protection protein produced by Paenibacillus ehimensis NPUST-1, amino acid SEQ ID NO: 1 (protein, listed as Paenibacillus ehimensis)
chain: MNEQLTVLLNNQIANWSVLYVKLHNYHWYVKGPQFFTLHTKFEELYTEAALHVDALAERLLALGGKPVATMSGSLRLASVREAEGEESAERMVAALVNDFTLIIGELKSGMKYAESVQDETTGDLLLAIHSSLEKHVWMLNAFLGN
As for B1, the “Diameter of inhibitory zone” value in the series on Pseudomonas aeruginosa worked out at 1.2 ± 0.00 cm; with Escherichia coli, 1.4 ± 0.00 cm; in the series on Listeria monocytogenes, 1.0 ± 0.05 cm; in the series on Streptococcus agalactiae it was 1.4 ± 0.00 cm; in the series on Vibrio alginolyticus it was 1.1 ± 0.03 cm; with Salmonella typhimurium it was 1.1 ± 0.05 cm. Besides, the “Diameter of inhibitory zone” value came out at 1.1 ± 0.05 cm with Staphylococcus aureus; 1.3 ± 0.00 cm with Debaryomyces hansenii; 1.2 ± 0.03 cm in the series with Vibrio parahaemolyticus; 1.1 ± 0.05 cm in [1]; 1.3 ± 0.00 cm in the series with Vibrio vulnificus; 1.3 ± 0.00 cm with Aeromonas hydrophila. Moreover, the “Diameter of inhibitory zone” value in the series with Burkholderia gladioli is 1.5 ± 0.05 cm. For the same molecule, the “antibacterial activity remained after preservation” value with E. coli [2] (4° C.) is 90%; with E. coli [2] (40° C.) it was 66%; with E. coli [2] (room temperature), 80%; in the series on E. coli [2] (−20° C.) it was 90%. Further, the “antibacterial activity after preliminary purification” value with E. coli [3] is on record as “significantly higher”. The antibacterial activity remained in the series on E. coli [4] (pH2 for 4 hours) is 87%. For the same molecule, the “antibacterial activity after pH treatment” value with E. coli [4] (pH 3~10 for 4 hours) was “remain stable”. Moreover, the “antibacterial activity after protease treatment” value in the series on trypsin and in the series with proteinase K was “stable antibacterial activity” in each case.
